The results in this text go back to the supplement of paper PMC10065799, “High-throughput profiling of sequence recognition by tyrosine kinases and SH2 domains using bacterial peptide display” (eLife, 2023).

One series addresses c-Src SH2. Nature of the series: SH2 binding enrichment of the phosphorylated peptide, bacterial display (enrichment ratio); higher = better substrate or ligand; peptides without Tyr show the background.
A further series deals with SHP2-C SH2. Described as above.
A further series concerns the target Grb2 SH2 (UniProt P62993). The series is described as above.
The target in the next series is FGFR1 (UniProt P11362). Nature of the series: phosphorylation enrichment, bacterial display (enrichment ratio); higher = better substrate or ligand; peptides without Tyr show the background.
Sequence of FGFR1 (P11362 whole entry, looked up): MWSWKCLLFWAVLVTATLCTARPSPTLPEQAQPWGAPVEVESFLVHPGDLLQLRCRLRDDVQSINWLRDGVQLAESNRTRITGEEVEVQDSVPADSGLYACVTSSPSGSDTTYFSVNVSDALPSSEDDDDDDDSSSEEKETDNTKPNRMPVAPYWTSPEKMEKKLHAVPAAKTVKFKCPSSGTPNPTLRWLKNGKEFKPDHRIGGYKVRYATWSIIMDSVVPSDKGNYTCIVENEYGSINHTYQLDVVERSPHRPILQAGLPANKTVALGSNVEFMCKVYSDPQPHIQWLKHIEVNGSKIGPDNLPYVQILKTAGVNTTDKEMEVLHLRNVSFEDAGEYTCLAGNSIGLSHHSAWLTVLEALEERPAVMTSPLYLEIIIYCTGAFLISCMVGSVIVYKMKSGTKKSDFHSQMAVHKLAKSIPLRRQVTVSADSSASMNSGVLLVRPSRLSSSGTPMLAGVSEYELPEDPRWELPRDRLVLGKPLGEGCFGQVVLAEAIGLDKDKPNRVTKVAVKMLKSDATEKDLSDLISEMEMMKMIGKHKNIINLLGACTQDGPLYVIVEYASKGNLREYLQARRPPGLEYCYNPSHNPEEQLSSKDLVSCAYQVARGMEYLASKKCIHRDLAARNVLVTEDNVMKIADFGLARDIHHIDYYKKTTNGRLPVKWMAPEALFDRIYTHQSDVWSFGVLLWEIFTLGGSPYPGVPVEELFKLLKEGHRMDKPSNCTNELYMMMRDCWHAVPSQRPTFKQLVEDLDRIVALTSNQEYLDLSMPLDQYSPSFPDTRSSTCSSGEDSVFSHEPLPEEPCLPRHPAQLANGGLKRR
For the next series, the target named is Jak2 (UniProt O60674). Described as above.
Sequence of Jak2 (O60674 whole entry, looked up): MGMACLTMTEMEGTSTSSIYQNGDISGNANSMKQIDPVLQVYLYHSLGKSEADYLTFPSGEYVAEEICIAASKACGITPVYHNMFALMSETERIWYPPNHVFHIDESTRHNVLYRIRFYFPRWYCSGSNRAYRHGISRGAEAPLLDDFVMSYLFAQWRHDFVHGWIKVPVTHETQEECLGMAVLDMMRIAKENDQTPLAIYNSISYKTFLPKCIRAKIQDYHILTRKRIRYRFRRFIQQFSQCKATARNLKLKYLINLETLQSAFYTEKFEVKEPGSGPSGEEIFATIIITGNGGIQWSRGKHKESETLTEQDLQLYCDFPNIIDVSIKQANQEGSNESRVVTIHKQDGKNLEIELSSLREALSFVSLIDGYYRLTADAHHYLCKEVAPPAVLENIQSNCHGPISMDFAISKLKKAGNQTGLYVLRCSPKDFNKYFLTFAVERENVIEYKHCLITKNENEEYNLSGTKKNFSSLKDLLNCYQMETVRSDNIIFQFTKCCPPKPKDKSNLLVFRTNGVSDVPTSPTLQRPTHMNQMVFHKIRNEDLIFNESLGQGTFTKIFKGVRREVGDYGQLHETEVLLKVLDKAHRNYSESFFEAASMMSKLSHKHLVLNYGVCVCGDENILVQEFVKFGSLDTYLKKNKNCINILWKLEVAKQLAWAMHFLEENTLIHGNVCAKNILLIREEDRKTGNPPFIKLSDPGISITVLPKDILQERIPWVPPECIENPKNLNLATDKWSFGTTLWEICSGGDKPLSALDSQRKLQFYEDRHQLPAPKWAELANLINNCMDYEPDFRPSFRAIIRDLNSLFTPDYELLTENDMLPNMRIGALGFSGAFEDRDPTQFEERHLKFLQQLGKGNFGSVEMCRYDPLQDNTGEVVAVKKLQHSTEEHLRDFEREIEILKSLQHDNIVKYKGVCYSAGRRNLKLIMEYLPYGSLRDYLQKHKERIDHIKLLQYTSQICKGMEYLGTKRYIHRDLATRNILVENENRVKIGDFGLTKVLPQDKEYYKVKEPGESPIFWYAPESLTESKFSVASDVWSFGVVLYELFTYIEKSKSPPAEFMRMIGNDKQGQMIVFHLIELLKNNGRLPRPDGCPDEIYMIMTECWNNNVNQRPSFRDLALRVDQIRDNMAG
The target of another series is EPHB2 (UniProt P29323). Described as above.
Sequence of EPHB2 (P29323 whole entry, looked up): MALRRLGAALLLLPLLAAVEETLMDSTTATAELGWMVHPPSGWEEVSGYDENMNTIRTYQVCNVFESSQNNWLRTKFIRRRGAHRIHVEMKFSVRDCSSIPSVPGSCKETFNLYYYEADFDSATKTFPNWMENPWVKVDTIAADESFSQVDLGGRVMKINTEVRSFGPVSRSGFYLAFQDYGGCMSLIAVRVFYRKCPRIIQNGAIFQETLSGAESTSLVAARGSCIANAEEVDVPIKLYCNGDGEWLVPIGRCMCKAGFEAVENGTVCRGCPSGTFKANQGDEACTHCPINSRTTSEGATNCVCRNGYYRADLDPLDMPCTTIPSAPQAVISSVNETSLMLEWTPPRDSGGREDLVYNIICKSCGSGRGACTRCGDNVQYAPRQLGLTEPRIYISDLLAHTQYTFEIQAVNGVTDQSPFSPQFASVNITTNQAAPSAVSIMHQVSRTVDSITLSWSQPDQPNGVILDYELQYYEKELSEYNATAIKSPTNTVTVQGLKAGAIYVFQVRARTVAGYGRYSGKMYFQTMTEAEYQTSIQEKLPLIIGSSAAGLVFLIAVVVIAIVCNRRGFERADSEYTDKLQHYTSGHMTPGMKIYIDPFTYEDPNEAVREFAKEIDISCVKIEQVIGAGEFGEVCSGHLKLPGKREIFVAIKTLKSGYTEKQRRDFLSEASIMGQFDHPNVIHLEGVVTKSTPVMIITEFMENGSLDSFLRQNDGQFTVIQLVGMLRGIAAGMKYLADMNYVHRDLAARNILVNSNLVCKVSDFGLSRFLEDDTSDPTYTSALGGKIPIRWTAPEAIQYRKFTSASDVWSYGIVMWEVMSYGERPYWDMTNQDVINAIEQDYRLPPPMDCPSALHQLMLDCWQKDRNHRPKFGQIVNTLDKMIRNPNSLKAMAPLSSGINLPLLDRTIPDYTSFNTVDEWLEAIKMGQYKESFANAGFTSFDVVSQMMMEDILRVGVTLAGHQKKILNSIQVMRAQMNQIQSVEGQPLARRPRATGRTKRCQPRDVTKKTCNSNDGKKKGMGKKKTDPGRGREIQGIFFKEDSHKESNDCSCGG
For a further series, the system named is c-Abl (mouse). The series is described as above.
The target in the next series is MERTK (UniProt Q12866). The series is described as above.
A further series deals with FGFR3 (UniProt P22607). The description is as above.
The next series deals with AncSZ. The description is as above.
In another series the target is Hck (UniProt P08631). The series is described as above.
Sequence of Hck (P08631 whole entry, looked up): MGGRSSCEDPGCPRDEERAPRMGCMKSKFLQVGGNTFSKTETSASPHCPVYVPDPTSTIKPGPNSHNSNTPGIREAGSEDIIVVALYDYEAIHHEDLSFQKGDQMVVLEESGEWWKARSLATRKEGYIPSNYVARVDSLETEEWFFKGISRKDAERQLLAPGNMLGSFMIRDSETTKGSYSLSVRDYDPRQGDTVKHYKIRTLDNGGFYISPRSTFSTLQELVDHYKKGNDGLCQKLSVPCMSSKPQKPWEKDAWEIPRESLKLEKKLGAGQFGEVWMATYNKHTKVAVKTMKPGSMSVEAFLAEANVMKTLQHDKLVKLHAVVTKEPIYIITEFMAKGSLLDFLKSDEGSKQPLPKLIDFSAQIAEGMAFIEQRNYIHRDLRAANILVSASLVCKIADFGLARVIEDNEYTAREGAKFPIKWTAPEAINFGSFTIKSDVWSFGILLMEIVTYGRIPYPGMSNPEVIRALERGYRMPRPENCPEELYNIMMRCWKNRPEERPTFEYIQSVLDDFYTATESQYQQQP
The next series concerns the target Fes (UniProt P07332). The series is described as above.
A further series concerns the target EPHB1 (UniProt P54762). The series is described as above.
The next series deals with Fyn (UniProt P06241). Described as above.
Sequence of Fyn (P06241 whole entry, looked up): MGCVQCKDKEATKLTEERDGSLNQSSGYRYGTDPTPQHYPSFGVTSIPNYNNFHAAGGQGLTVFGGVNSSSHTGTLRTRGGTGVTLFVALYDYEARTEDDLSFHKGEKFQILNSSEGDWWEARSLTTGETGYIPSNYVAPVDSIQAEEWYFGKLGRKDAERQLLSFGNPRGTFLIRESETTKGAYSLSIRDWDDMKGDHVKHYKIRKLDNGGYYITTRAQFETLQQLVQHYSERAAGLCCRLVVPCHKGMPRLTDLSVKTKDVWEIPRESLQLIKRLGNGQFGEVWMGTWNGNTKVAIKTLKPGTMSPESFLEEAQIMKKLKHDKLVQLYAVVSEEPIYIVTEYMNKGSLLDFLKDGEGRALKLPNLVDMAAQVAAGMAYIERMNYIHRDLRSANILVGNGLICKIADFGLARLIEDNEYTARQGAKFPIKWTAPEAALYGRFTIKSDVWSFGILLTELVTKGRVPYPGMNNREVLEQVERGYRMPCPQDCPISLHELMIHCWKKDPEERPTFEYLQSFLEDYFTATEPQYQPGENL
The subject of another series is c-Src. Described as above.
The test system of a further series is Fer (mouse). The description is as above.
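For SH2 binding enrichment of the phosphorylated peptide, bacterial display in this document: peptide library displayed on the E. coli surface as eCPX fusions, selected cells deep-sequenced, score is each peptide's frequency after selection divided by its frequency in the input.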
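For phosphorylation enrichment, bacterial display in this document: 11-residue human phosphosite peptides and single-mutation variants displayed on the E. coli surface, counted by deep sequencing, each peptide's frequency after selection divided by its frequency in the unselected input library; frequency after pTyr selection over input frequency; kinase dosed for 20-30% of maximal phosphorylation in three min.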

Sequence of EPHB1 (P54762 whole entry, looked up): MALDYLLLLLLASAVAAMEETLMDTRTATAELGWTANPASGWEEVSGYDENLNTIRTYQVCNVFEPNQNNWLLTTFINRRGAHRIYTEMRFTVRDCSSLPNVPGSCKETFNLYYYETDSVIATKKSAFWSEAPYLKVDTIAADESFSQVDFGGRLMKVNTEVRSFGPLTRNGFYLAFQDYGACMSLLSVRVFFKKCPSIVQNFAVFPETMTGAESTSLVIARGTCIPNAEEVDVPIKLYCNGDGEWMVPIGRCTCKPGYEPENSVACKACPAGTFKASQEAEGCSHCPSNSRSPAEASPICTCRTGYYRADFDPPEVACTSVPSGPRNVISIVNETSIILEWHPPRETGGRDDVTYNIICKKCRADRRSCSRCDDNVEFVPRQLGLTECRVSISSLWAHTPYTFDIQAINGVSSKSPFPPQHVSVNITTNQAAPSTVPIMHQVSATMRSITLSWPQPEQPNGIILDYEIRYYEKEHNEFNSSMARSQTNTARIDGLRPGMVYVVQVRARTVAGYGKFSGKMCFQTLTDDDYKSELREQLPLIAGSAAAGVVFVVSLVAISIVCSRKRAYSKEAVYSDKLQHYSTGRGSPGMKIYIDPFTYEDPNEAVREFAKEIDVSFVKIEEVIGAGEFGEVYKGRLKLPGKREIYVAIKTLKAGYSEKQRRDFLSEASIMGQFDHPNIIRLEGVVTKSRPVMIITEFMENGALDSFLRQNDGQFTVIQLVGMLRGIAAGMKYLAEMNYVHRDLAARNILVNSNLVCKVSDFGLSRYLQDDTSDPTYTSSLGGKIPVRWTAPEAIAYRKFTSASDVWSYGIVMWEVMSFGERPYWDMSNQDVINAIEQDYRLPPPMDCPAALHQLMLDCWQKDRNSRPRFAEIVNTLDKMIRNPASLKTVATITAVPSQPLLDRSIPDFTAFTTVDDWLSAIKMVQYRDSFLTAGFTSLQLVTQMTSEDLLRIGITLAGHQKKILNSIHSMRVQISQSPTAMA

Regarding AIIGIYILRDN [CDH23_Y2949_D2954N], the SH2 binding enrichment with c-Src SH2 is 0.987; with SHP2-C SH2, 1.42; in the series with Grb2 SH2, 1.44. Besides, the phosphorylation enrichment with FGFR1 came out at 0.604; in the series with Jak2 it was 1.05; with EPHB2, 0.631; with c-Abl (mouse) it was 0.888; in the series with MERTK it was 0.423; in the series with FGFR3, 0.793. Besides, the phosphorylation enrichment in the series on AncSZ amounted to 1.36; with Hck, 1.6; with Fes, 1.39; with EPHB1, 0.687; in the series with Fyn, 0.925; in the series with c-Src it was 1.68. Further, the phosphorylation enrichment in the series on Fer (mouse) is 0.596.
In the case of AKFPFYEKNKK [FOXL2_Y91], the SH2 binding enrichment with c-Src SH2 was determined as 0.981; in the series with SHP2-C SH2, 1.38; with Grb2 SH2, 1.31. The phosphorylation enrichment with FGFR1 was found to be 0.441; in the series with Jak2 it was 0.655; in the series with EPHB2, 0.467; in the series with c-Abl (mouse), 0.545; with MERTK it was 0.436; with FGFR3, 0.533. In addition, the phosphorylation enrichment in the series on AncSZ is 0.589; with Hck, 0.443; with Fes, 0.806; with EPHB1, 0.407; in the series with Fyn, 0.405; with c-Src, 0.415. For the same sequence, in the series with Fer (mouse), the phosphorylation enrichment turned out to be 0.304.
Consider AKLDEYIAIAK [RCOR3_Y46], for which the SH2 binding enrichment with c-Src SH2 was 0.434; with SHP2-C SH2, 0.83; in the series with Grb2 SH2, 0.945. The phosphorylation enrichment with FGFR1 turned out to be 0.535; in the series with Jak2 it was 0.79; with EPHB2, 0.565; in the series on c-Abl (mouse) it was 0.621; in the series with MERTK it was 0.522; with FGFR3, 0.711. The phosphorylation enrichment in the series on AncSZ was determined as 0.92; with Hck, 0.473; with Fes, 0.949; with EPHB1, 0.614; with Fyn it was 0.479; in the series on c-Src, 0.367. Besides, in the series with Fer (mouse), the phosphorylation enrichment came out at 0.452.
ALDRPYTSKHS [NANS_Y71_E68D]: the SH2 binding enrichment with c-Src SH2 came out at 0.485; with SHP2-C SH2 it was 0.613; with Grb2 SH2 it was 0.926. In addition, the phosphorylation enrichment with FGFR1 came to 0.379; with Jak2, 0.636; with EPHB2, 0.508; in the series with c-Abl (mouse) it was 0.637; in the series with MERTK it was 0.448; with FGFR3 it was 0.566. The phosphorylation enrichment worked out at 0.612 in the series with AncSZ; 0.489 in the series with Hck; 0.638 with Fes; 0.364 with EPHB1; 0.499 in the series with Fyn; 0.542 with c-Src. Also, the phosphorylation enrichment with Fer (mouse) was determined as 0.474.
In the case of ALLTKYSHSSM [DSCC1_Y374], the values for the SH2 binding enrichment with c-Src SH2, with SHP2-C SH2 and with Grb2 SH2 were 0.406, 0.488 and 0.76, respectively. For the same sequence, the phosphorylation enrichment in the series with FGFR1 amounted to 0.45; in the series with Jak2, 0.542; with EPHB2, 0.643; in the series with c-Abl (mouse) it was 0.727; with MERTK it was 0.436; with FGFR3, 0.587. Also, the phosphorylation enrichment in the series on AncSZ came to 0.651; with Hck it was 0.485; in the series with Fes, 0.737; in the series with EPHB1, 0.442; in the series with Fyn it was 0.578; in the series on c-Src, 0.528. Further, the phosphorylation enrichment with Fer (mouse) amounted to 0.56.
As for ANNEYYFRVCA, the values for the SH2 binding enrichment with c-Src SH2, with SHP2-C SH2 and with Grb2 SH2 were 0.402, 0.461 and 0.646, respectively. Moreover, the phosphorylation enrichment with FGFR1 came to 1.89; with Jak2, 1.53; with EPHB2, 0.759; in the series on c-Abl (mouse), 1.08; with MERTK it was 0.439; in the series with FGFR3 it was 1.94. In addition, the phosphorylation enrichment with AncSZ was 1.4; in the series with Hck it was 0.657; with Fes, 1.4; in the series with EPHB1, 0.895; in the series with Fyn, 0.471; in the series with c-Src, 0.526. Besides, the phosphorylation enrichment in the series on Fer (mouse) is 0.469.
As for ANVIHYFPTQA [SLC25A4_Y81_R80H], the SH2 binding enrichment in the series with c-Src SH2 was 0.435; with SHP2-C SH2 it was 0.94; with Grb2 SH2 it was 0.9. Further, the phosphorylation enrichment stood at 0.487 with FGFR1; 0.794 with Jak2; 0.415 in the series with EPHB2; 0.806 with c-Abl (mouse); 0.456 with MERTK; 0.56 with FGFR3. Also, the phosphorylation enrichment in the series with AncSZ turned out to be 0.623; in the series with Hck, 0.446; with Fes it was 0.652; with EPHB1 it was 0.528; in the series with Fyn, 0.483; in the series with c-Src, 0.515. Besides, the phosphorylation enrichment with Fer (mouse) came to 0.393.
As for ARKRKYFKKHE [NFIX_Y40], the SH2 binding enrichment with c-Src SH2 was 0.259; in the series with SHP2-C SH2, 0.409; with Grb2 SH2 it was 0.911. In addition, the phosphorylation enrichment with FGFR1 came to 0.554; with Jak2, 0.477; with EPHB2 it was 0.535; with c-Abl (mouse), 0.64; in the series with MERTK it was 0.472; in the series with FGFR3, 0.591. Also, the phosphorylation enrichment with AncSZ was determined as 0.602; in the series with Hck it was 0.605; in the series with Fes, 0.653; with EPHB1, 0.511; with Fyn, 0.561; with c-Src it was 0.56. Moreover, the phosphorylation enrichment in the series with Fer (mouse) was found to be 0.281.
